Test results reported in the supplement of paper PMC10567573.

B1: SLC2A12 (parent)
chain: CLLGLGSLVLILSLSYTVLIVGRI
B2: KIAA1161 (parent)
chain: FMPAMQFSIPPWRYDAEVVAIAQK

Variants of: B1
Assay: protein stability index of a GFP-peptide fusion (GPS, HEK-293T) (PSI 1-6); higher = more stable
Details: c terminus: a fixed tail appended
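Also: lentivirally expressed fusions sorted by FACS into six bins by GFP to DsRed ratio, PSI derived from sequencing read proportions per bin multiplied by bin number.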

Protein stability index: each site, then its substitutions
I11: E 4.57
S13: N 1.87; L 2
L10: N 2.3
G22: V 3.25; K 2.08
L2: K 1.76
I24: R 4.47
V18: K 2.98
I20: L 3.62; P 2.85
S7: I 2.45; H 1.81
V9: N 1.9; T 2.25
R23: E 3.06
L3: R 2.62; E 2.54
L12: Q 3.11; E 3.91
L5: W 2.12; Y 3.19; G 3.97
S15: D 2.87; W 1.8; C 4.02; I 3.21
V21: I 3.74
G4: Y 4.5; C 2.73

Variants of: B2
Assay: as above
Details: c terminus: a fixed tail appended

Protein stability index, by site and new letter:
Q6: T 1.55; G 1.83; I 1.34; A 2.33; E 1.83; S 1.83; V 3.24; K 1.93; F 1.4; D 1.92; Y 1.34; R 1.82; H 1.86; N 2.66
D15: R 1.95; N 3.08; G 1.75; M 2.56; S 1.24; Y 3.05; K 1.25; E 2.5; Q 1.94; L 1.5; T 2.69; W 1.19; P 1.17
A20: P 2.16; K 2.34; C 2.22; N 3.44; G 1.98; E 2.42; D 3.07; H 1.97; M 1.32; F 2.54
S8: I 2.81; A 1.69; P 2.1; R 1.99; F 2.68; C 1.07; M 1.71; D 1.54; T 1.64; G 1.65; L 2.05; Q 2.11; N 2.7; V 2; K 2.93
A4: M 1.86; H 2.68; L 2.09; Q 1.97; E 2.34; C 1.47; T 1.76; K 1.87; N 1.56; P 2.29; G 2.34; D 3.44; R 2.66
I9: R 1.6; T 1.8; E 2.37; Q 1.67; F 2.48; W 3.43; S 2.08; A 2; K 1.84; H 2.35; G 1.95; N 2.28; D 2.57; P 1.93; M 2.04; Y 2.83
Y14: G 1.93; K 2.08; P 1.79; M 2.25; H 2.52; Q 2.57; S 2.13; D 2.2; L 1.59; T 2.82; I 1.05; F 1.63; C 1.67; A 2.2; N 2.37
P10: Q 1.64; G 1.33; L 2.99; A 1.33; E 2.5; S 2.42; K 2.57; H 1.77; M 1; T 2; W 3.74; I 2.86; D 1.27; R 1.28; Y 2.34
V18: N 2.23; I 2.06; C 1.86; T 1.88; S 2.05; W 3.22; Y 2.03; H 2.93; L 2.23; F 1.62; P 2.96; E 2.63; G 2.6; A 2.17; K 2.33; M 1.88; R 3.34; Q 2.81; D 2.36
V19: S 1.48; Q 2.5; K 1.99; P 4.1; M 1.81; D 2.82; H 1.56; E 2.42; F 2.48; C 2.39; I 1.46; G 2.2; R 2.83; Y 3.33; L 1.47; N 3.31; T 2.21; A 2.18
W12: P 2.74; D 2.55; F 2.26; N 2.49; L 2.23; R 2.39; Q 2.3; E 2.08; M 2.7; C 1.73; I 2.18; G 2.76; K 2.17; T 2.44; A 2.31; H 2.53; S 2.48; Y 1.99
E17: F 2.13; I 1.52; K 2.66; H 1.92; P 1.48; W 3.06; N 1.62; Y 2.45; S 1.62; V 1.24; Q 3.67; G 1.72; D 1.54; A 1.2; R 1.38; C 1.68
M5: Y 1.77; G 3.64; Q 2.24; H 2.71; P 2.6; V 2.23; F 2.25; T 1.68; S 2.24; D 1.48; N 1.9; A 2.15; L 2.25; K 1.95; E 2.81; C 2.11
P11: E 1.64; F 2.17; G 1.48; A 1.61; T 1.69; Q 1.78; N 2.11; Y 2.28; S 2.03; K 1.65; I 1.59; L 2.24; H 3.1; V 1.01; R 1.48; C 1.79; D 2.37
A16: V 2.52; I 3.3; P 2.08; D 2.25; W 1.66; Q 1.62; H 1.63; T 3.04; F 2.28; Y 2.19; K 1.59; E 1.97; N 2.02; G 1.2; R 2.65; M 1.53; S 1.72
P3: F 1.73; N 2.39; M 4; C 2.02; A 2.35; K 2.58; L 2.22; Q 1.28; I 2.58; V 2.33
M2: D 3.16; E 2.83; H 1.74; N 1.61; Y 1.79; L 1.46; W 2.09; A 2.47; R 2.45; C 1.97; S 1.46; Q 2.71; K 2.38
F1: Q 3.2; D 3.37; G 2.04; S 1.84; M 2.83; K 2.55; R 3.23; E 2.81; L 2.37; W 1.95; Y 1.82; C 1.97; N 2.61; A 2.3; P 2.33; I 2.52; V 2.7
R13: D 2.67; W 1.58; Y 1.69; P 2.17; G 1.53; N 2.51; E 2.48; V 1.16; F 1.1; S 1.63; A 2.04; T 2.02; I 1.81; Q 2.53; K 2.21
F7: W 1.68; A 1.97; H 2.01; K 1.7; C 2.61; E 2.34; D 2.9; P 2.08; Y 1.7; I 2.9; T 2.24; Q 2.89; L 1.82; M 1.91; G 1.61; S 1.6; N 2.24
